B1: TPP-9251 (antibody, human IgG1, lambda, V domains shown)
VH: EVQLLESGGGLVQPGGSLRLSCAASGFTFSNYGIHWVRQAPGKGLEWVSAIGTGGDTYYADSVTGRFTISRDNSKNTLYLQMNSLRAEDTAVYYCARDRGYYDILTGLYDYWGQGTLVTVSS
VL: QSVLTQPPSASGTPGQRVTISCSGSSSNIGNNYVNWYQQLPGTAPKLLIYGNYHRPSGVPDRFSGSKSGTSASLAITGLQAEDEADYYCSSYAGSNNWVFGGGTKLTVLG
B2: TPP-9258 (antibody, human IgG1, lambda, V domains shown)
VH: EVQLLESGGGLVQPGGSLRLSCAASGFTFSSYGMHWVRQAPGKGLEWVSAIGTGGDTYYADSVQGRFTISRDNSKNTLYLQMNSLRAEDTAVYYCARDRGYYDILTGLYDYWGQGTLVTVSS
VL: QSVLTQPPSASGTPGQRVTISCSGSSSNIGNNYVNWYQQLPGTAPKLLIYGNYHRPSGVPDRFSGSKSGTSASLAITGLQAEDEADYYCSSYAGSNNWVFGGGTKLTVLG
B3: TPP-9238 (antibody, human IgG1, lambda, V domains shown)
VH: EVQLLESGGGLVQPGGSLRLSCAASGFTFSNYGIHWVRQAPGKGLEWVSAIGTGGDTYYADSVMGRFTISRDNSKNTLYLQMNSLRAEDTAVYYCARDRGYYDILTGLYDYWGQGTLVTVSS
VL: QSVLTQPPSASGTPGQRVTISCSGSSSNIGNNYVNWYQQLPGTAPKLLIYGNYHRPSGVPDRFSGSKSGTSASLAITGLQAEDEADYYCSSYAGSNNWVFGGGTKLTVLG

What follows are binders tested against anti-FXIa antibody 076D-M007-H04-CDRL3-N110D (assay: cell-based or functional assay).

Going from B1 to B2, the “aPTT 1.5 X” value rises from 0.06 µM to 0.1 µM (1.7-fold).

In the case of B3, the “aPTT 1.5 X” value is reported as 0.1 µM.

First: B1
Second: B2
The “biochemical FXIa assay IC 50” value of the first is 2.5-fold lower: 0.2 nM for the first, 0.5 nM for the second.

In the case of B3, the “biochemical FXIa assay IC 50” value is reported as 0.5 nM.

B1 and B2 are within 1.5-fold of each other in “plasma based assay IC 50” value: 6 nM for the first, 7 nM for the second.

For B3, the “plasma based assay IC 50” value was 10 nM.
